Values quoted from earlier work in patent publication US20260055200A1, “COMBINATION THERAPIES” (Alligator Bioscience AB, priority 2022, published 2026).
Like-named read-outs stand apart in the source and are kept apart here.

Tests used:
[1] = system: previously untreated pancreatic cancer; conditions: cited from earlier work
[2] = system: metastatic pancreatic cancer; conditions: standard first-line treatment; cited from earlier work
[3] = system: metastatic pancreatic cancer; conditions: PRODIGE 4, 342 patients; cited from earlier work
[4] = system: metastatic pancreatic cancer; conditions: MPACT study; cited from earlier work
[5] = system: previously untreated metastatic pancreatic cancer; conditions: cited from earlier work
[6] = in combination with Gem-NabPac with or without nivolumab

Selicrelumab: CD40 agonistic monoclonal antibody, with an IgG2 format
DLT ([1]; 0.2 mg/kg dose level, with gemcitabine): One DLT, a cerebrovascular accident
proportion of patients with liver enzyme elevations ([1]; all grade 1-2, with gemcitabine): approximately ⅔
dose up to which the combination was well tolerated ([1]; in combination with gemcitabine): up to 0.2 mg/kg
complete responses ([1]; with gemcitabine): no complete responses (CR) were observed
patients with cytokine release syndrome in relation to the infusion ([1]; with gemcitabine): 20 of the 22
response rate ([1]; with gemcitabine): 19%

Nc1ccn([C@@H]2O[C@H](CO)[C@@H](O)C2(F)F)c(=O)n1 [gemcitabine]
median overall survival (mOS) [2]: about 6 months
mOS [3]: 6.8 months
objective response rate (ORR) [3]: 9.4%
ORR [4]: 7%
mOS [4]: 6.7 months

B1: APX005M: CD40 agonistic monoclonal antibody, with a mutated IgG1 format for improved binding to FcγR2b (antibody, chains of the INN, looked up, V domains shown)
VH: QVQLVESGGGVVQPGRSLRLSCAASGFSFSSTYVCWVRQAPGKGLEWIACIYTGDGTNYSASWAKGRFTISKDSSKNTVYLQMNSLRAEDTAVYFCARPDITYGFAINFWGPGTLVTVSS
VL: DIQMTQSPSSLSASVGDRVTIKCQASQSISSRLAWYQQKPGKPPKLLIYRASTLASGVPSRFSGSGSGTDFTLTISSLQPEDVATYYCQCTGYGISWPIGGGTKVEIK
Complete Response, patients ([5]; Total (N = 24)): 0
Not Evaluable, patients (%) ([5]; Total (N = 24)): 1 (4%)
Partial Response, patients (%) ([5]; Total (N = 24)): 13 (54%)
Progressive Disease, patients (%) ([5]; Total (N = 24)): 1 (4%)
Stable Disease, patients (%) ([5]; Total (N = 24)): 9 (38%)
circulating mutant KRAS DNA [5, 6]: marked and rapid decrease
immune profiling of PBMCs, myeloid compartment [5, 6]: rapid activation of DCs in most patients
